Reference: patent US20110002929A1 (Ablynx, published 2011)

T1: human RANK-L (human, UniProt O14788 140-317, limits assumed)
T1 construct: Soluble protein, used coated, biotinylated or labelled in ELISA, AlphaScreen, FMAT and Biacore; also called hRANK-L; soluble human RANK-L
T1 sequence (looked up): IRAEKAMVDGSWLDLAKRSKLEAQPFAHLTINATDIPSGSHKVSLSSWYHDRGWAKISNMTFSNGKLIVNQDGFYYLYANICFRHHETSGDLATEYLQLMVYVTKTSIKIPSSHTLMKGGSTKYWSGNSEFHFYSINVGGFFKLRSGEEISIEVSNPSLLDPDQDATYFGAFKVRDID

T2: mouse RANK-L (mouse, UniProt O35235 158-316, limits assumed)
T2 construct: also called murine RANK-L
T2 sequence (looked up): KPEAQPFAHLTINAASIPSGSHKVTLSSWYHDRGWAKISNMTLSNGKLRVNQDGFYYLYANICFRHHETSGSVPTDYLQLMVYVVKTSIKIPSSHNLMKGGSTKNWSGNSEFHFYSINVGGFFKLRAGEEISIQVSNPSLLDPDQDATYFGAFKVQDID


Experiments:
[1] = target: T1, human RANK-L; test: AlphaScreen, biotin-hRANK-L / RANK-huFc beads
Description: To this mixture, the RANK acceptor beads and the streptavidin donor beads were added and further incubated for 1 hour at room temperature. Fluorescence was measured by reading plates on the EnVision Multilabel Plate Reader (Perkin Elmer) using an excitation wavelength of 680 nm and an emission wavelength of 520 nm.

[2] = target: T1, human RANK-L; test: AlphaScreen, biotin-hRANK-L / RANK-huFc beads; remark: listed apart in the source
[3] = target: T1, human RANK-L; test: ELISA (ED50), biotin-hRANK-L on neutravidin
Description: (§1) Therefore 2 μg/ml neutravidin was coated overnight at 4° C. The plates were washed 5 times with 300 μl PBS and then blocked with […] 1% casein/PBS for 2 hours at room temperature. […] After extensive washing with PBS, varying concentrations of Nanobodies starting from 500 nM to 160 pM diluted in 1% casein/PBS were added to the wells and the plates were incubated for 1 hour at room temperature. Bound Nanobodies were detected by subsequent incubations of a primary mouse anti-myc antibody and a secondary anti mouse-HRP conjugate (DAKO, Glostrup, Denmark) and using TMB-H2O2 (Pierce, Rockford, Ill., USA) substrate cocktail. The reaction was stopped with H₂SO₄ and the OD was read at 450 nm.

[4] = target: T2, mouse RANK-L; test: ELISA (ED50) on murine RANK-L, set-up as for human RANK-L
Description: as §1

[5] = target: T1, human RANK-L; test: cell-based or functional assay
[6] = target: T2, mouse RANK-L; test: competition ELISA on human RANK-L-coated plates, 100 pM Nanobody preincubated with the ligand
[7] = target: T3, TNFα (UniProt P01375 77-233); test: as above
T3 construct: also called TNF-alpha
T3 sequence (P01375 77-233 limits assumed): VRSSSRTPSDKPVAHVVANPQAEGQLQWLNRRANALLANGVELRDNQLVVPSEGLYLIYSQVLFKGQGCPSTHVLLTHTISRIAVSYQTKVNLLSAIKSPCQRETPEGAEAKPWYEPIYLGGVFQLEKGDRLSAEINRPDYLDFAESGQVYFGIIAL

[8] = target: T4, TRAIL (UniProt P50591 114-281, limits assumed); test: as above
T4 construct: also called tumor necrosis factor-related apoptosis inducing ligand
T4 sequence (P50591 114-281 limits assumed): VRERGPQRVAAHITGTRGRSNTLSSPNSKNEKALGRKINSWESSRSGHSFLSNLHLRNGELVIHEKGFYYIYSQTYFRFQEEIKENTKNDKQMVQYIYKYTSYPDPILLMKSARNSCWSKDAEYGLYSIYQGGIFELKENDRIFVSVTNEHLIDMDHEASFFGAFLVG

[9] = target: T1, human RANK-L; test: AlphaScreen, biotin-hRANK-L / RANK-huFc beads; remark: listed apart in the source
[10] = target: T1, human RANK-L; test: FMAT, ALEXA647-hRANK-L / RANK on HEK293T cells

Row | IC50 [1] | IC50 [2] | EC50 [3] | EC50 [4] | RANK-L induced NF-kappaB activation (luciferase reporter, HEK293T cells), IC50 [5] | binding result [6] | binding result [7] | binding result [8] | IC50 [9] | IC50 [10] | Binder
1 | 0.497 nM | 0.474 nM | 0.568 nM | ~0.6 nM | 8.32 nM |  |  |  |  |  | RANKL3 (VHH, not shown: small tags and cut ends) VHH: EVQLVESGGKLVQAGGSLRLSCAVSGRTSSIYNMAWFRQGPGKGRESVGRIYWSDDNTYYADSVKGRFTISRDNATNTVYLQMNSLKPEDTAVYYCAGKTTKWSLEYDYWGQGTQVTVSS
2 |  |  |  |  |  | no binding (tested: 10 nM) | no binding (tested: 10 nM) | no binding (tested: 10 nM) | 0.049 nM | 0.041 nM | RANKL001p (VHH, PEG (3-Maleimidoproprionamide, 1,3-bis(Methoxy poly (ethylene glycol) modified 2-glycerol), Average MW 40,000) coupled after DTT reduction; the entry ends in GGGC, Bivalent pegylated humanized Nanobody; also called RANKL13hum5-9GS-RANKL13hum5-PEG) EVQLVESGGGLVQPGGSLRLSCAASGFTFSSYPMGWFRQAPGKGREFVSSITGSGGSTYYADSVKGRFTISRDNAKNTLYLQMNSLRPEDTAVYYCAAYIRPDTYLSRDYRKYDYWGQGTLVTVSSGGGGSGGGSEVQLVESGGGLVQPGGSLRLSCAASGFTFSSYPMGWFRQAPGKGREFVSSITGSGGSTYYADSVKGRFTISRDNAKNTLYLQMNSLRPEDTAVYYCAAYIRPDTYLSRDYRKYDYWGQGTLVTVSSGGGC
3 |  |  |  |  |  | no binding (tested: 10 nM) | no binding (tested: 10 nM) | no binding (tested: 10 nM) | 0.025 nM | 0.038 nM | RANKL003p (VHH, PEG (3-Maleimidoproprionamide, 1,3-bis(Methoxy poly (ethylene glycol) modified 2-glycerol), Average MW 40,000) coupled after DTT reduction; the entry ends in GGGC, Bivalent pegylated humanized Nanobody; also called RANKL3p; RANKL18hum6-30GS-RANKL18hum6-PEG) EVQLVESGGGLVQPGGSLRLSCAASGRTFSRSAMGWFRQAPGKGREFVGFITGSGGTTYYADSVKGRFTISRDNAQNPVYLQMNSLRPEDTAVYYCAVYRRTYISSTYSESSEYDYWGQGTLVTVSSGGGGSGGGGSGGGGSGGGGSGGGGSGGGGSEVQLVESGGGLVQPGGSLRLSCAASGRTFSRSAMGWFRQAPGKGREFVGFITGSGGTTYYADSVKGRFTISRDNAQNPVYLQMNSLRPEDTAVYYCAVYRRTYISSTYSESSEYDYWGQGTLVTVSSGGGC
